For the assay, the target named is SARS-CoV-2 RBD (WT) (SARS-CoV-2, UniProt P0DTC2). In words: SPR. (In general: Surface plasmon resonance follows binding to a sensor surface in real time, without labels.)

As usually defined, the Kd is the concentration at which binding is half-saturated. Read a high Kd as a looser complex.

B1: P4A1 (antibody, V domains shown)
VH: EVQLVESGGGLIQPGGSLRLSCAASGFIVSSNYMSWVRQAPGKGLEWVSIIYSGGSTFYADSVKGRFTISRDNSKNTLYLQMNSLRVEDTAVYYCARDLQELGSLDYWGQGTLVTVSS
VL: DIQMTQSPSSVSASVGDRVTITCRASQGISSWLAWYQQKPGKAPKLLIYAASSLQSGVPSRFSGSGSGTDFTLTISSLQPEDFATYYCQEANSFPYTFGQGTKLEIK
In turn, B1 gave a Kd of 0.102 nM.

The record behind these values is PMC8113581 (2021).
